In US20230235040A1 (ALMIRALL S A, published 2023):
Residue numbers refer to the chain shown, from its start.

B1: mAb6_2 Fab (Fab, V domains shown)
VH: ELQLQESGPGLVKPSETLSLTCTVSGGSITSSNYYWGWIRQPPGKGLEWIGSIDYTGSTYYNPSLKSRVTISVDTSKNQFSLKLSSVTAADTAVYYCARGKYYETYLGFDVWGQGTLVTVSS
VL: ESVLTQPPSVSGAPGQRVTISCTGSSSNIGAHYDVHWYQQLPGTAPKLLIYGNDNRPSGVPDRFSGSKSGTSASLAITGLQAEDEADYYCQSYDYSLSGYVFGGGTKLTVL
B2: mAb1.0 Fab (yeast clone culture supernatant) (Fab, V domains shown)
VH: QVQLVESGGGVVQPGRSLRLSCAASGFSFSAYAMHWVRQAPGKGLEWVAVISYDGTNEYYADSVKGRFTISRDNSKNTLYLQMNSLRAEDTAVYYCARGIRIFTSYFDSWGQGTLVTVSS
VL: B1 VL with E1Q, G52S, D54N, S98R
notes: Human Fab secreted by the yeast clone, not purified
B3: mAb3.0 Fab (yeast clone culture supernatant) (Fab, V domains shown)
VH: QLQLQESGPGLVKPSETLSLTCTVSGGSISSTSYYWGWIRQPPGKGLEWIGSIHYSGNTYYNPSLKSRVTISVDTSKNQFSLKLSSVTAADTAVYYCARVHYGGYIPRRFDHWGQGTLVTVSS
VL: B1 VL with E1Q, H32G, D54T, S98R
notes: as for B2
B4: mAb4.0 Fab (yeast clone culture supernatant) (Fab, V domains shown)
VH: QLQLQESGPGLVKPSETLSLTCTVSGGSIGSRSYYWGWIRQPPGKGLEWIGSIHYSGTTYYNPSLKSRVTISVDTSKNQFSLKLSSVTAADTAVYYCARVAPSYPRVFDYWGQGTLVTVSS
VL: B1 VL with E1Q, H32G, D54R, S98R, G99V
notes: as for B2
B5: mAb5.0 Fab (yeast clone culture supernatant) (Fab, V domains shown)
VH: EVQLLESGGGLVQPGGSLRLSCAASGFTFSTYAMSWVRQAPGKGLEWVSGISGGSGYTYYADSVKGRFTISRDNSKNTLYLQMNSLRAEDTAVYYCARVVTYRDPPASFDYWGQGTLVTVSS
VL: B1 VL with E1Q, S98K, G99A
notes: as for B2
B6: mAb2.0 Fab (yeast clone culture supernatant) (Fab, V domains shown)
VH: B3 VH with S31T, T32S, H54Y, S56T, H101R, G104V, Y105G, I106V, R109Y, H112P
VL: B1 VL with E1Q
notes: as for B2
B7: mAb6_2.3 Fab (Fab, V domains shown)
VH: B1 VH with S31A, P63T, R99T
VL: B1 VL
notes: Purified Fab (Biacore, HaCat assay)
B8: mAb6_2.1 Fab (Fab, V domains shown)
VH: B1 VH with S32T, S52N, P63A, R99T
VL: B1 VL
notes: as for B7
B9: mAb6_2.2 Fab (Fab, V domains shown)
VH: B1 VH with Y34A, Y60A, R99H
VL: B1 VL
notes: as for B7
B10: mAb6_2.4 Fab (Fab, V domains shown)
VH: B1 VH with S31A, R99T
VL: B1 VL
notes: Purified Fab
B11: mAb8.0 recombinant human IgG1 (antibody, V domains shown)
VH: QVQLVQSGAEVKKPGSSVKVSCKASGGTFSNYAISWVRQAPGQGLEWMGGILPILGTVDYAQKFQGRVTITADESTSTAYMELSSLRSEDTAVYYCAREPWYRLGAFDVWGQGTLVTVSS
VL: DIQMTQSPSSLSASVGDRVTITCRASQTIYKYLNWYQQKPGKAPKLLIYAASSLQSGVPSRFSGSGSGTDFTLTISSLQPEDFATYYCQQYSSIPYTFGQGTKVEIK
B12: mAb7.0 recombinant human IgG1 (antibody, V domains shown)
VH: QVQLVESGGGVVQPGRSLRLSCAASGFTFSSYGMHWVRQAPGKGLEWVAVISYGGSERYYADSVKGRFTISRDNSKNTLYLQMNSLRAEDTAVYYCAREPWYSSRGWTGYGFDVWGQGTLVTVSS
VL: EIVLTQSPGTLSLSPGERATLSCRASQSVSSNYLAWYQQKPGQAPKLLIYSASSLQSGVPSRFSGSGSGTDFTLTISSLQPEDFATYYCQQTYSYPPTFGQGTKVEIK

Target: T1, hu-IL-36β (human IL-36β, N-terminally truncated active form R5-E157) (human)
T1 construct: Purification tag cleaved off; Biotinylated where captured; also called hu-IL-36b
T1 chain: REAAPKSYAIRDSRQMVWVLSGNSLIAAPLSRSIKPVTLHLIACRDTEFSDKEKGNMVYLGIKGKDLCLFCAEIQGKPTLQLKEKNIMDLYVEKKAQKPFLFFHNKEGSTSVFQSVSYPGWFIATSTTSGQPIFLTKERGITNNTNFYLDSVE
Test: SPR (Biacore 8K), biotinylated hu-IL-36β captured on CAP chip, Fab injected, 37°C
Method: Briefly, a 1:4 dilution of Biotin CAPture Reagent (GE) into HBS-EP buffer (0.01 M HEPES pH 7.4, 0.15 M NaCl, 3 mM EDTA, 0.005% Surfactant P20) was applied to a CAP sensor chip at 2 uL/min flow rate. For kinetics measurements, 6 nM biotinylated human IL-36β was captured at 10 uL/min to achieve ˜50 response units in the second flow cell (FC2). FC1 was kept as a reference. […] The sensorgram was recorded and subject to reference and buffer subtraction before evaluating by BIACORE® 8K Evaluation Software (version 1.1.1.7442). Association rates (kₒₙ) and dissociation rates (koff) were calculated using a simple one-to-one Langmuir binding model.

Binder	apparent Kd (pooled screen) [nM]	apparent koff (pooled screen) [s⁻¹]	apparent kon (pooled screen) [M⁻¹ s⁻¹]
B1	14.7	0.00128	87200

target: T2, hu-IL-36γ (human IL-36γ, N-terminally truncated active form S18-D169) (human, UniProt Q9NZH8 18-169); test: ELISA, yeast Fab supernatant, anti-Fab-HRP
T2 construct: Purification tag cleaved off; Biotinylated where captured; also called hu-IL-36g
T2 sequence: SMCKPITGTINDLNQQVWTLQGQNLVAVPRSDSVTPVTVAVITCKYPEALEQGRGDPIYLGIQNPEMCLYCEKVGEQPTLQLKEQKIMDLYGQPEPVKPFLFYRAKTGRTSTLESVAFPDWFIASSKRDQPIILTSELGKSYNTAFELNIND

Binder	ELISA OD450 [OD450]
B2	2.43
B3	2.11
B4	2.3
B5	2.08
B6	2.5

target: T3, hu-IL-36α (human IL-36α, N-terminally truncated active form K6-F158) (human, UniProt Q9UHA7 6-158); test: ELISA, yeast Fab supernatant, anti-Fab-HRP
T3 construct: Purification tag cleaved off; Biotinylated where captured (SPR, some ELISAs); also called hu-IL-36a
T3 sequence: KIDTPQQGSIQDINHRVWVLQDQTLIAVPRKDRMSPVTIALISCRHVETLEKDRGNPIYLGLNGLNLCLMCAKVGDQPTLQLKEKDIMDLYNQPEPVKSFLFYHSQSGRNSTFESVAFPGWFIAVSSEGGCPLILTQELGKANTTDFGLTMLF

Binder	ELISA OD450 [OD450]
B2	0.94
B3	1.63
B4	2.16
B5	2.05
B6	2.53

Target: T4, cy-IL-36γ (cynomolgus monkey IL-36γ, S18-K168) (cynomolgus monkey, UniProt Q9NZH8 18-167 (human entry))
T4 construct: Purification tag cleaved off
T4 chain: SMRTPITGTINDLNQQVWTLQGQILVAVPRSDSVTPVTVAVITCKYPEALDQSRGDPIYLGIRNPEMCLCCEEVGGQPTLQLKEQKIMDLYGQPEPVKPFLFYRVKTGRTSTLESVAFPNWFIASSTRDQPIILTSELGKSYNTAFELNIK
Test: ELISA on coated cy- and hu-IL-36γ, yeast Fab supernatant; ratio of OD450
Method: (§1) Cell supernatants from yeast clones of interest were tested for binding to human IL-36 by ELISA as described above. To compare the binding of these supernatants to human and cynomolgus monkey IL-36, IL-36 proteins were coated at 2.5 μg/mL on 96-well Nunc MaxiSorp plates (Thermo Fisher) and the plates blocked with 5% goat serum in PBS. Yeast supernatants were diluted 1:1 with PBST containing 1% w/v BSA and added to the ELISA plates for 1-1.5 hours with agitation. Bound Fab was detected by incubating the plates with F(ab′)2-HRP (Jackson ImmunoResearch). The ELISAs were developed for 3-10 minutes by addition of 50 μL/well of tetramethylbenzidine (TMB) microwell peroxidase substrate (Scytek Laboratories, Inc., Logan, Utah, USA) and enzymatic color development was stopped by acidification with 50 µL/well of 2 N H₂SO₄ (Sigma-Aldrich Corporation, St. Louis, Mo., USA). The optical density of the samples at a wavelength of 450 nm (OD450) was analyzed with a SpectraMax i3X plate reader (Molecular Devices LLC, San Jose, Calif., USA). To estimate the relative affinity of each clone for cynomolgus monkey IL-36 and human IL-36 in this assay, a ratio of OD450 (OD450_cyIL-36/OD450_huIL-36) was calculated for each clone and IL-36 cytokine.

Binder	ELISA OD450cyIL-36/OD450hu-IL-36 [ratio]
B2	1.3
B3	1
B4	1.2
B5	1
B6	1.2

Target: T1, hu-IL-36β (human IL-36β, N-terminally …)
Test: phage competition ELISA: Fab on phage, soluble hu-IL-36β titrated against coated hu-IL-36β
Method: Selected phages with top binding signal were purified to perform phage competition ELISA. The optimal phage concentration was incubated with serially-diluted human IL-36β in ELISA buffer (0.5% BSA and 0.05% TWEEN©20 in PBS) in NUNC F plate for two hours. 80 μl of the mixture was transferred to human IL-36β coated wells for 15 min to capture unbound phage. The plate was washed with wash buffer (0.05% TWEEN©20 in PBS), and HRP-conjugated anti-M13 antibody (Sino biological, Cat #11973-MM05-H-50) was added in ELISA buffer for 30 min. The plate was incubated at room temperature for one hour with agitation, washed six times with wash buffer and developed for 15 minutes by addition of 100 μL/well of 1 Step Turbo™ B substrate (ThermoFisher, Cat #34022). The enzymatic reaction was stopped using 50 μL/well of 2N H₂SO₄. Plates were analyzed using a Perkin Elmer plate reader (Envision 2103 multilabel reader) at 450 nm. The absorbance at 450 nm was plotted as a function of antigen concentration in solution to determine phage IC₅₀. […] Real affinities for purified Fab molecules for the phage variants were also measured using Biacore (method described in detail in section E below).

Binder	apparent IC50 (pooled screen) [nM]	IC50 [nM]
B1	8.57	–
B7	–	0.49
B8	–	0.77
B9	–	1.04

Target: T5, cy-IL-36α (cynomolgus monkey IL-36α, K6-F158) (cynomolgus monkey, UniProt Q9UHA7 14-158 (human entry))
T5 construct: Purification tag cleaved off
T5 chain: T3 sequence with I2S, D3E, T4M, Q7P, G8V, T24I, M34V, A40S, V74A
Test: ELISA on coated cy- and hu-IL-36α, yeast Fab supernatant; ratio of OD450
Method: as §1

Binder	ELISA OD450cyIL-36/OD450hu-IL-36 [ratio]
B2	0.6
B3	0.5
B4	0.5
B5	0.5
B6	0.7

Target: T1, hu-IL-36β (human IL-36β, N-terminally …)
Test: SPR (Biacore), purified Fab, biotinylated hu-IL-36β captured

Binder	apparent Kd (pooled screen) [nM]	Kd [nM]
B1	40.1	–
B10	–	1.05
B7	–	1.62
B8	–	3.5
B9	–	2.55

Target: T1, hu-IL-36β (human IL-36β, N-terminally …)
Test: cell-based or functional assay

Binder	IC50, IL-36-stimulated IL-8 secretion by HaCat cells [nM]
B1	3.19
B10	0.13
B7	1.31
B8	1.64
B9	2.22

target: T2, hu-IL-36γ (human IL-36γ, N-terminally …); test: cell-based or functional assay

Binder	% Inhibition, HEK-Blue IL-36R SEAP reporter assay [%]
B2	31
B3	64
B4	57
B5	75
B6	89

target: T3, hu-IL-36α (human IL-36α, N-terminally …); test: cell-based or functional assay

Binder	% Inhibition, HEK-Blue IL-36R SEAP reporter assay [%]
B2	70
B3	40
B4	91
B5	75
B6	91

Target: T1, hu-IL-36β (human IL-36β, N-terminally …)
Test: cell-based or functional assay
Remark: another data set of the same source

Binder	IC50, HEK-Blue IL-36R SEAP reporter assay [nM]
B11	0.34
B12	1.4
